Experimental data published in US20130046257A1, “METHODS OF USING AGENTS THAT MODULATE CLAUDIN EXPRESSION” (priority 2010, published 2013).
“And” between values parts separate entries of the source, which are not always exact repeats. Equal values may be shown once.

Experiments:
[1] = tested on: primary human keratinocytes (PHK); assay: Trans Epithelial Electric Resistance (TEER) of PHK; assay type: cell-based
Method: Human keratinocytes were isolated from neonatal foreskin. Poumay et al., “Basal Detachment of the Epidermis Using Dispase: Tissue Spatial Organization and Fate of Integrin Alpha 6 Beta 4 and Hemidesmosomes,” J. Invest. Dermatol. 102:111-7 (1994), which is hereby incorporated by reference in its entirety. PHK were cultured in Keratinocyte-SFM (Invitrogen/Gibco) with 1% Pen/Strep, 0.2% Amphotericin B (Invitrogen/Gibco). To differentiate PHK, cells were grown in DMEM (Invitrogen/Gibco) with 10% heat-inactivated fetal bovine serum (Invitrogen/Gibco) and 1% Pen/Strep, 0.2% Amphotericin B (Invitrogen/Gibco). For TJ modulation experiments, the following cytokines were added alone or in combination to the differentiation media; human IL-4 (50 ng/ml; R&D system) and IL-13 (50 ng/ml; R&D system).
PHK were plated at a subconfluent density of 2.5−3×10^4 cells/filter in Transwell insert and cultured in Keratinocyte-SFM media until confluent. TEER was measured using an EVOMX voltohmmeter (World Precision Instruments, Sarasota, Fla.). The resistance of cell-free filters was subtracted from each experimental value.
PHK were plated on glass coverslips at 2-3×10^5 cells/well in a 6-well plate or at 2-3×10^4 cells/filter in Transwell insert (Costar; PET membrane, 0.4 μm pore size, 6.5 mm insert) in Keratinocyte-SFM without antibiotics. The next day after plating, cells were transfected with claudin-1 specific or control (scrambled) siRNAs (Santa Cruz) using Lipofectamine™ 2000 transfection Reagent (Invitrogen). TEER and permeability experiments were conducted 48 hours after PHK were switched to differentiation media.
TEER was measured in PHK as described above. PHK were stimulated with S. aureus-derived peptidoglycan (PGN, 0.2-20 μg/ml, n=3-7) (FIG. 19A), Malp-2 (10-1000 ng/ml, n=3) (FIG. 19B), and Pam3CSK4 a TLR1/2 ligand (0.01-20 μg/ml, n=3-6) (FIG. 19C). Data are presented by analyzing the area under the TEER curve and normalized to the mean values for the control group (media alone)*p<0.05; **p<0.01.

HSV-1 strain F = assay: HSV-1 fluorescent-focus assay in siRNA transfected PHK; assay type: cell-based, human; conditions: siRNA 100 nM
Method: Infection studies were performed using the highly virulent HSV-1 strain F (provided by Dr. D.C. Johnson). Twenty-four to 48 h post-transfection with 100 nM claudin-1 or control siRNA, the cells were differentiated in DMEM with 10% heat-inactivated FBS for 24 h. Cells were washed twice with HBSS and infected with HSV-1 strain F at a multiplicity of infection (MOI) of 0.1 in DMEM containing 1% heat-inactivated FBS at 37° C., with rocking every 15 min. After 2 h, the viral inoculum was removed, and the cells were washed 2× with HBSS and incubated in DMEM containing 5% HI-FBS and 0.4% human-γ-globulin (Sigma; final concentration 0.5 mg/ml) for 24 hr to neutralize any extracellular virus.
HSV-infected PHK were washed 2× with PBS and fixed in 4% formaldehyde/PBS for 20 min at room temperature. A polyclonal rabbit anti-HSV-1 (Dako) antibody diluted 1:500 in PBS/1% BSA was placed on the PHK for 1 h at 37° C. followed by Alexa Fluor 488 donkey-anti-rabbit IgG H+L (1:1000, Molecular Probes) and 4′,6-diamidino-2-phenyl-indole, dihydrochloride (DAPI) (1:10,000, Molecular Probes). Coverslips were mounted onto slides with SlowFade (Molecular Probes). […] Images were stored in Portable Network Graphics (PNG) format and analyzed computationally to objectively quantify differences in focal forming units (FFU). […] Cell density was calculated by counting the number of DAPI labeled nuclei, assigned to the blue channel. Images were analyzed using MATLAB to enumerate FFU, and total cell number. […]
The MOI was chosen based on findings from viral titration (0.01 to 10 MOI) studies on differentiated and undifferentiated PHK, respectively, used as negative and positive controls. […] For each sample, six random fields were captured at identical acquisition settings and analyzed computationally to objectively quantify differences in focal forming units (FFU). […] An average of 4.8±0.7 FFU/field were counted in CLDN1 knockdown PHK, while only 2.5±0.5 FFU/field were detected in the control cells (P=0.05; n=6; FIG. 15C). Adapted Fluorospot software was used to semi-quantify differences in dimensions of each FFU. […]

B1: CLDN1 siRNA: claudin-1 siRNA (h), Santa Cruz; a pool of 3 separate strands, SEQ ID NO: 10-15 (nucleic acid)
chain 1: UACAUAGGCAUAGUUCAUGNN
chain 2: CAUGAACUAUGCCUAUGUANN
chain 3: AACGUAUGCAGUUAAUUCCNN
chain 4: GGAAUUAACUGCAUACGUUNN
chain 5: UGAAGAUCUAUGUAUGUGGNN
chain 6: CCACAUACAUAGAUCUUCANN
modifications: chemistry not given here
TEER (FIG. 12C legend) ([1]; CLDN1 siRNA, PHK, n=4): 80.6±6.4
TEER ([1]; siRNA 100 nM, PHK 48 hours after switch to differentiation media, n=4): 80.6±6.4 ohms×cm^2
drop in TEER ([1]; siRNA 100 nM, vs scrambled siRNA-transfected PHK): ≥ 50%
HSV-1 focal forming units (HSV-1 strain F; HSV-1 MOI 0.1, 24 h, n=6): 4.8±0.7 FFU/field
FFU area (HSV-1 strain F; HSV-1 MOI 0.1, n=6): 15649±4367 pixels
diameter of the major axis of FFU (HSV-1 strain F; HSV-1 MOI 0.1, n=6): 207±22 μm and 207±21 μm
